test: soluble fraction after stress (log2 fold change); higher = more stays soluble; pooled small domains, quantitative proteomics; settings: stress: 50 degC
Outline: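 Custom libraries of small protein domains were pooled and measured in a high-throughput format, with quantitative proteomics as the read-out. Each library was stressed at 50°C. The value is the log2 fold change in the amount of each protein that stays soluble after stress, used as a measure of aggregation propensity; higher values mean more of the protein stays soluble.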

Sequence	soluble fraction (log2)
HMPKRYAGPDIIAIYGSDVFFRVGSGDGLMVIPVGRSMDNIEVVSVDAPRSVELMWKDGGPFTVPV	-0.165
HMPKSKTPDDAAEEFRTAFSALDMDGKVTVKDMAEYMGVIDKTVYARLKKMGDEFTLDKGVITKKT	-0.0532
HMPKTATIVIDLNYADAKEIVENLQTILAGETKDISVAPHPSANQIIASGDRWEVENISTIIKQLDR	0.00694
HMPKTLTEAAYEDIKQWILEGEITPGSKISLEDTASRLEVSMTPIREALTKLQQEGLVEYIPRAGWRASK	0.173
HMPLAQRFGLTVAQARVLDLLAEGRSNRQIGELLGLTEGTVKIHVSAIMKAMGVSNRAEAALMANRKR	-0.717
HMPLDKDTTLDEIYRRFNMEHPADYKGHSLSMGDIVVFRQDGKQTAYYVDEGADYRQVPEFFVK	0.0346
HMPLDPFVVDALRDEIINTIKQHEPRVDLQKVQVQPIYTQNRVNISVQYKIVGLPIVEDITFVLQRP	-0.0764
HMPLEKGVVILDVTPSSAKVAVDGTSVETTYPLRLSAGLHQLSAEADGYDSITEYFKVETEKTTVTLDLSK	0.105
HMPLEQAELRLDLKQAILQMDRQTQELLLLRYVDGLSPGEAGKVLELSRFAVYRREKEALRKLRDYFSH	-1.79
HMPLLSEWDAALEELWAKLGDVPMDPETERMDAPFLGFPAGTPREDIWHWFDERHSKGVAHLLYG	-2.37
HMPLQYRLTVQPTPTNARVRLVNSAFTYRPGVALPPGSYIVEVSSSGYGAKRQAVQIADGDVTVPVELEKI	-0.012
HMPLYKYYTSYQIEPGDTLTSIAQKYTINSDVSVQDYIDEVKKNNNLVSDKINSGSYLVVSYYSNEY	-2.35
HMPNIQLARNLKYLRLAYGLTQDDLGAFLNISRQAYSNYENLKRSPDLDSLIRLASLYHLSLDDLVSR	-3.09
HMPNTLAGIERYLGSGMVKGIGPVYASRLVSAFGTAVFDVIEQTPERLREIDGIGEKRTRKITSGWADQ	-0.127
HMPNYIDAISALLTLKGVGDRKHASTMANILNLQYNSAKQKLDGKRGITLDEVKKVFQYFNEPF	-1.1
HMPPAPGHDLTEREREVLRLLVEGLSNQEISDRLVISQSTVKNHVSSVLSKLDAANRAEAVALALKNQL	0.00346
HMPPELSDEVMEEAMSYLKNQYLNHGVKLEDYPALNKLFVDEAFRSEVIRKTQSNYKISYQSAMASLD	0.0219
HMPPENVSVRREQIAEDKKTVYNVWVTKGNKTVLYSKVVYAWGGVYFFRDLNTSISENMYKQADAGLVN	0.0555
HMPPGQIVNEALQRAGNSTPTGTAISAQDDIKLYTSALAELATQGDTSSASVAKLREALQTAQVAFYNAV	0.0769
HMPPITIVPNDNGVPIIRSQTPEISTAVNVELKAAGINTHTIDGTSIRVPKAQAQVAQQIVSRVNTRFT	0.158
HMPPNHADLKSSGLKATLPRLKILEIFQNSQVRHLSAEDVYKLLLAENLDVGLATVYRVLTQFEQAGL	-0.475
HMPPNRDDEHLQALRDYYAANRRIPSLQRVASLLGFSSRSAAVKLMGRLADEGFIERTADDDAWITGKRFF	-1.19
HMPPNVLSEREQEVLQLAADGMSNKEMGSELYIAPTTVRDHMQSIMRKLQVNSRTAAAVAGLKLGLLD	-0.1
HMPPPTLVESAYNHLKADIISSYLKPDEKINLKDLSQRYQVSETPIKQALNRLISEGLIISVPRKGMWVH	-0.0852
HMPPPVERAIRKLGHDLSLARRRRRISQDSMAQRMGASVSTVRRIEKGDPRIPIHFIARAMMILGDLKAL	-0.0422

Sequence	soluble fraction (log2)
HMPQFDRQAFGQRLRLLRDYREMTQQQVANFLNVDRSTYSYYENGKTEPSITVLMRMAELFSVTLDSLLNM	-2.83
HMPQIDLYPFEVRIEQDNNAAEYAVRFLDVPNIIGSGASIDEAIVEARGNLKEYLDYLIDTNRDIPLPS	-0.412
HMPQISQDDLMEAGLIVGKEAKQRRIKLGEILGIGYVNAKQLPKRLQLFQVAKSDFEQAVQQIDG	-0.0431
HMPQKSDLTMEEYNKLGLAGGSGSRKLREQVGIRLSVGYGNSKQFYNRLHTFGISLDELKTAVEEVKNG	-0.117
HMPQNVSVPDVTNMTQAEAESKLKEKNLAVGNIIPELSTTVEKDKVTRTNPESGSNVRKNSKVDIYVSQG	0.0455
HMPQPDVIEVRQGIVTGMRPDRRTGWLRDEEDAAGEPKSFSIDVITPKGRTPGKGAVVTYTLTNGKITEVK	-0.0415
HMPRELKVRDVSHQHAGHAGWREGGETHFEVDMKADVFAGTSRVAAHRMVNKVLANELASRVHALQLNLS	0.0371
HMPRENLAYTLIMDGIVQHKNLPRASVTEAWLKQELQKAGINDFRQVLIAGIDSKGQLYFQPKQK	0.528
HMPRPLVAPMPGLIVRVTAVVGDSVDAGQGLVVMEAMKMENELRTTTAGVVKTVHVQPGVAVEKGALLIEF	-0.893
HMPRTEILMVDEEMEGERLDAFVAEQLDELSRSLVKTLIENGEIRVDGKQQKPSYRLKAGEEIIVEIPA	0.208
HMPSDTNLIGKTGIAYTTLRPGGTALIDDRKVDVVADSEYIEKDKKIKVIRVEGIKVVVTAVK	0.091
HMPSGRIRWFDAKKGYGFIAGDDGKDVFLPQTALPQGVRNPRKGAKVEYSVIEGNRGQVAMGVTMV	-0.0368
HMPSHALFWTLLKEVPGYDPHYKDVIKEGIVHEHSGGRTTSLSEMYTKYPREYSLMIEAMKG	-0.487
HMPSKTFYNLSQEKQQKIIDASEKEFSNNLYQDVSLNQIIKNSNISRGSFYMYFTDKEDLYFYLLNEY	0.275
HMPSLGADIRALRKSRKMTLVALADALGRSVGWLSQVERDKSHATIADLGRMAEVLDVSISSFL	-0.27
HMPSLSAILHDARVAAGLSMRQASAASGLSIGFISMLEQGKVQDISLQRLGRLVTAYDLEPLDVIEAAG	-1.55
HMPSSAYGPYKNVFLSNSELTKLKNELPTSWEHYINRLSEYMRSTGRQYQSHAATILRWAATDRNS	-0.139
HMPSSFLVKVTADALNIRSGPGVANRITGTIKDKGTYTIVDTKDDWGKLKSGVGWIHLGYTKRLD	-0.33
HMPSSQQVMRRLATVGPDKTLEELQRQHDAHLRKYGEFNDFRGERQQMRQEMERIKEAKQGTGPYAHLMG	0.0233
HMPTAGYMTVTPDRVKEGQQFLATLRPPYVLKADGLAAGKGVLILPELEEAQRELEEMLGGFLGELSVNR	-0.0813
HMPTERLSMRRIRELLRLRFEVGLSTRLIATALGISKGAVGDYLQRAQVAGLGWPLPENLNDAALERRLFP	-0.681
HMPTGRVVIPLNRLTASDVARILDEAYGRDHNFEVVKPSRLAKGIIVIGPKSEIDGIKELLAH	-0.535
HMPTLLGYKHILSAWNPDTNTVFRTSYGYDGEYGSREEAMQALIKMIQEGGKATPRGIEESEVPIY	-0.126
HMPTLSKVGSQGEEVRQIQTKLKNWGYLNDRVDGIYGPKTRDAVIWFQKKNGLVADGIAGPATLKAMGIFT	0.0925
HMPTMVAQINEIVQAKLPGSGLKDYTIRLVESQRDGVVVWVNGTRYLGVDEVAEPQVQALLKEAVAEWERS	-0.132

— the domain aggregation screens of Martell et al. (2025)
